Experimental data from patent US7919091B2, “Lipolysis stimulated receptor (LSR) specific antibodies” (Serono Genetics Institute S.A., priority 1997, dated 2011).

Experiments:
LSR receptors [1] = tested on: LSR receptors; set-up: species or system mice; details: mouse
Experimental: The apparent number of LSR receptors on plasma membranes is measured as previously described (Mann et al., 1995) by estimating the quantity of LDL bound to a plasma membrane preparation. The plasma membranes (100 μg) are incubated with 1 mM oleate; they are then washed three times as indicated above, and then incubated for 1 hour at 37° C. with 40 μg/ml of ^125I-LDL. The quantity of ^125I-LDL bound to the plasma membranes is then determined by counting. The mean is established on 3 measurements per animal for 3 different animals in each of the groups.

LSR receptors [2] = assay: Long-term treatment with leptin on ob/ob mice: LSR receptor number and LSR mRNA; assay type: in vivo
Experimental: The ob/ob obese mice received a daily injection of either leptin, or of an equivalent volume of sterile PBS, for 30 days. The injected doses are 50 μg/animal from day 0 to day 4, 100 μg/animal from day 5 to day 17, and 150 μg/animal from day 18 to day 30. Several parameters indicated below are measured: • the weight (FIG. 29 A): the change in weight is measured for 6 animals, over the duration of the treatment; • the postprandial lipemic response (FIG. 29 B): it is measured according to the protocol detailed in Example 5 on three animals in each group, on day 29; • the apparent number of LSR receptors (FIG. 29 C): it is measured according to the protocol detailed in Example 4 on three animals in each group, on day 30; • the quantity of LSR mRNA ([…]): it is estimated by Northern blotting as indicated in the protocol of Example 2.

LSR = biological target: T1, LSR (Rattus norvegicus, UniProt Q9WU74); assay: LSR activity of binding, internalization and degradation of lipoproteins in the presence of leptin, rat hepatocytes; assay type: cell-based; details: increasing concentrations of leptin, difference with/without 500 μM oleate
T1 construct: from tissue; host or cells: rat liver plasma membranes / solubilized rat liver membrane proteins
T1 sequence (Q9WU74 36-593): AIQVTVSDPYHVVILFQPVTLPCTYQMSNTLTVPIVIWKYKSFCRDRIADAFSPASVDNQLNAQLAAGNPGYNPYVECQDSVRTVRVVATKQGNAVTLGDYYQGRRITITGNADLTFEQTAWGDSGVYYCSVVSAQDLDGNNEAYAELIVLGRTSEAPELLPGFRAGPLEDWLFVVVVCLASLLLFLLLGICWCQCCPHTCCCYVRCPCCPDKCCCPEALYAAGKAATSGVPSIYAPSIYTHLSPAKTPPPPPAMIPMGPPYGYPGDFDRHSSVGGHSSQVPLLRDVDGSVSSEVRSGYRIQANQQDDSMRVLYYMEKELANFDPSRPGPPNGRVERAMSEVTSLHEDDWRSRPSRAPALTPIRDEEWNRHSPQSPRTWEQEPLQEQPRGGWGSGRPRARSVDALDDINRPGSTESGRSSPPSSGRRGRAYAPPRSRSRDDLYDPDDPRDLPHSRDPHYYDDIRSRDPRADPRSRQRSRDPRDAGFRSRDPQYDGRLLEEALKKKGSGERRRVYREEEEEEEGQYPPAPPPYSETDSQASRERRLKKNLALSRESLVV
T1 sequence (Q9WU74 36-525 isoform Q9WU74-3 limits assumed): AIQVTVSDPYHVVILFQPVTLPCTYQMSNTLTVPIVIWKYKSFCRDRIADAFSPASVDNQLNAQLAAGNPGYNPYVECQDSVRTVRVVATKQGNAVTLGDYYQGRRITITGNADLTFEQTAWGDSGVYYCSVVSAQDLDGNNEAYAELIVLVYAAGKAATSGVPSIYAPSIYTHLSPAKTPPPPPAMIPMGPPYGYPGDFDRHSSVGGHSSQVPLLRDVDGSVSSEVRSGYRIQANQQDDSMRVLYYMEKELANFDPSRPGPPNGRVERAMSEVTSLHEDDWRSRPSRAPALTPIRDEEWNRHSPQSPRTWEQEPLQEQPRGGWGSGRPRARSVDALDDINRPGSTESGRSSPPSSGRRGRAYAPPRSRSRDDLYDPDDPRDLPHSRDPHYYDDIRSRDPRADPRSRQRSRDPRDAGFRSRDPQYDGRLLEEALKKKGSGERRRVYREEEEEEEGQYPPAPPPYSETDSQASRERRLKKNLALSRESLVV
Experimental: Rat hepatocytes in primary culture are incubated at 37° C. for 30 min with an increasing concentration of leptin, and then incubated at 37° C. for 4 hours with either 50 μg/ml of ^125I-LDL (specific activity: 209 cpm/ng) or 50 μg/ml of ^125I-VLDL (specific activity: 157 cpm/ng) in the absence or in the presence of 500 μM oleate. The cells are then washed and the quantities of ^125I-lipoproteins bound, incorporated and degraded are measured as described above in Example 1 (Bihain and Yen, 1992). The results shown in FIG. 23 represent the differences obtained between the cells incubated with or without oleate. Each point represents the mean of 3 measurements. The standard deviation for each point is included in the symbol.

[3] = Clearance of 125I-leptin in mice; assay type: in vivo
Experimental: The female control, ob/ob, or db/db mice (6-8 weeks), on an empty stomach, are anaesthetized and receive via the saphenous vein an injection of 80 ng of murine recombinant ^125I-leptin or of ^125I-β2-microglobulin (Sigma, labelled by the Iodobeads method, like leptin). Five minutes later, the animals are infused with a physiological saline solution (15 ml, at 4° C.). The tissues are collected and counted for their radioactivity (Gamma counter). In some cases, an anti-LSR antibody or a control protein are injected 30 minutes after injection of ^125I-leptin. It is important to note that the labelling of leptin with ^125I has no effect on its biological activity.

B1: leptin: mouse recombinant leptin with hexahistidine end, expressed in E. coli (protein, UniProt P41160 22-167, looked up)
Leptin: VPIQKVQDDTKTLIKTIVTRINDISHTQSVSAKQRVTGLDFIPGLHPILSLSKMDQTLAVYQQVLTSLPSQNVLQIANDLENLRDLLHLLAFSKSCSLPQTSGLQKPESLDGVLEASLYSTEVVALSRLQGSLQDILQQLDVSPEC
modifications: hexahistidine tag
notes: mouse recombinant leptin with hexahistidine end, expressed in E. coli
In the case of B1, the “apparent number of LSR receptors expressed at the surface of the hepatocytes in vivo” value (LSR receptors [1]) is reported as “increase”, the “apparent number of LSR receptors at the surface of the cells” value (LSR receptors [2]; day 30 of leptin treatment) is reported as “increase” and the “quantity of mRNA encoding the subunits of the LSR receptor” value (LSR receptors [2]; leptin 30 days, Northern blotting of liver RNA) is reported as “increase”. For the same molecule, the “binding, internalization and degradation of VLDLs and LDLs” value (LSR) was “increases”, the “renal capture of leptin” value ([3]; between control, ob/ob and db/db lines, 5 minutes after injection) was “no difference” and the “quantity of leptin selectively captured by the liver” value ([3]; obese (ob/ob, db/db) mice compared with control mice, 5 minutes after injection) was “reduced”. The speed of clearance ([3]; radiolabelled recombinant leptin, obese and control mice) was “rapid speed of clearance” and the “injected dose found in liver and kidney” value ([3]; radiolabelled recombinant leptin, obese and control mice, after 10 minutes) was 50%.
